Source: patent US20090041754A1 (Astellas, published 2009)

Biological target: T1, human ATP5B protein with C-terminal V5 epitope, made in vitro from pcDNA-ATP5B (human, UniProt P06576 1-529, radioisotope-labelled (L-[35S] Pro-mix))
T1 construct: In vitro transcription and translation (TNT system); about 60 kDa; also called wild type ATP5B
Test: GST pull-down of 35S-labelled in vitro translated human ATP5B with GST-DHFR on beads, autoradiography; condition without MTX-phenformin
Protocol: A 15 μl portion of this human ATP5B protein preparation liquid and 1 μg for each of the GST protein or GST-DHFR, purified on the glutathione Sepharose beads, were mixed and shaken at 4° C. for 1 hour after adding 0.3 ml of buffer A thereto. Thereafter, the protein binding to the GST protein or GST-DHFR on beads was co-precipitated by centrifugation.

T1 sequence (P06576 whole entry): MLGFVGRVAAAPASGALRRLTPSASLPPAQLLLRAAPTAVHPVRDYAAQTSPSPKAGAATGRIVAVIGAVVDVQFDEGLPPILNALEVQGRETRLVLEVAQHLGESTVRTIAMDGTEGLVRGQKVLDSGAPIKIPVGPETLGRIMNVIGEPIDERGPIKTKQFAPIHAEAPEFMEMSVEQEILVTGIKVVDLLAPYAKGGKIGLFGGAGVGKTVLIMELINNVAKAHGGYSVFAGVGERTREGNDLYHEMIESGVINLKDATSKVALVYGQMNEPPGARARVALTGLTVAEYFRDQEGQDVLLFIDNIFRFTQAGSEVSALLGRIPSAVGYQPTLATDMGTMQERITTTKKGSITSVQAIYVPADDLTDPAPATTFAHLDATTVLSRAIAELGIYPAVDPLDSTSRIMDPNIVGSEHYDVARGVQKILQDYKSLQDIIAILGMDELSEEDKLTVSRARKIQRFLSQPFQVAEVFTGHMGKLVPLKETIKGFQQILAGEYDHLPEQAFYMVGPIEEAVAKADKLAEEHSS

binding result: no binding
B1: GST fusion DHFR protein (other, human, UniProt P00374 1-187, looked up)
chain: MVGSLNCIVAVSQNMGIGKNGDLPWPPLRNEFRYFQRMTTTSSVEGKQNLVIMGKKTWFSIPEKNRPLKGRINLVLSRELKEPPQGAHFLSRSLDDALKLTEQPELANKVDMVWIVGGSSVYKEAMNHPGHLKLFVTRIMQDFESDTFFPEIDLEKYKLLPEYPGVLSDVQEEKGIKYKFEVYEKND
notes: domain: complete length; Expressed in E. coli BL21 and purified on glutathione Sepharose beads (45 kDa); also called GST-DHFR; not shown: GST tag of vector pGEX-6P-1 (Amersham)
